Laboratory results taken from patent US20230053449A1, “DC-SIGN ANTIBODY DRUG CONJUGATES” (NOVARTIS AG, priority 2018, published 2023).

Experiments:
[1] = molecular target: T1, human DC-SIGN, full length, stably expressed on CHO or K562 cells (human, UniProt Q9NNX6 1-404); assay: flow cytometry, K562 cells expressing human DC-SIGN
T1 construct: Also the native/transgenic human DC-SIGN on moDCs, macrophages and Tg+ mouse dendritic cells in the functional entries; also called human DC-SIGN CHO; human DC-SIGN K562
T1 sequence: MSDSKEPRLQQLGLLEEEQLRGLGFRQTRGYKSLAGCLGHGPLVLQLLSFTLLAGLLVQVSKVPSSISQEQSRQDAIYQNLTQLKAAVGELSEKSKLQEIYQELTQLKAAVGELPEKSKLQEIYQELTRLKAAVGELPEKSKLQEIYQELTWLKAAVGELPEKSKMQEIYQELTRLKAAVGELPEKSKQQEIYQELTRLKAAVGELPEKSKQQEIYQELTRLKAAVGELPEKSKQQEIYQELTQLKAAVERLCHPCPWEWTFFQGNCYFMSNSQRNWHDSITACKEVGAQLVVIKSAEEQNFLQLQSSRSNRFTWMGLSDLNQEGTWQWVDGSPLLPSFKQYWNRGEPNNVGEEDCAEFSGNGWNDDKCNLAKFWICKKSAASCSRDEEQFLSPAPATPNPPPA
Description: (§1) The affinity of various antibodies and ADCs to DC-SIGN and its species orthologues was determined using FACS. Purified IgGs were titrated to determine EC50 values for binding to cell surface expressed DC-SIGN.
(§2) For this purpose, human DC-SIGN expressing or cynomolgus monkey DC-SIGN expressing stable CHO cell lines or K562 expressing DC-SIGN or K562 expressing L-SIGN cell lines were checked for density and viability using VICELL (Beckman Coulter), and washed once with 4° C. PBS. Cells were stained with DAPI (0.5 ug/mL) diluted in PBS for 30 min on ice. Cells were diluted into 4° C. FACS buffer (PBS, 10 mM EDTA, 2% FBS). 125 μl of cells were seeded (10,000 cells/well) into 96-well v-bottom plates (Nunc cat #442587) and centrifuged for 4 min at 1500 rpm at 4° C. Supernatant was removed. […] Following incubation, cells were spun down (1500 rpm, 4 min, 4° C.) and washed two times with FACS buffer. A fluorophore-conjugated anti-hFc gamma-AF-647 (Southern Biotechnology) detection antibody was added at 1:400 dilution and samples were incubated for 1 h on ice in the dark.

[2] = molecular target: T1, human DC-SIGN, full length, stably …; assay: flow cytometry, CHO cells expressing human DC-SIGN
Description: as §1, §2

[3] = molecular target: T2, cynomolgus monkey DC-SIGN, full length, stably expressed on CHO cells (cynomolgus monkey, UniProt Q95J96 1-403 (rhesus entry)); assay: flow cytometry, CHO cells expressing cyno DC-SIGN
T2 construct: also called cyno DC-SIGN CHO
T2 sequence: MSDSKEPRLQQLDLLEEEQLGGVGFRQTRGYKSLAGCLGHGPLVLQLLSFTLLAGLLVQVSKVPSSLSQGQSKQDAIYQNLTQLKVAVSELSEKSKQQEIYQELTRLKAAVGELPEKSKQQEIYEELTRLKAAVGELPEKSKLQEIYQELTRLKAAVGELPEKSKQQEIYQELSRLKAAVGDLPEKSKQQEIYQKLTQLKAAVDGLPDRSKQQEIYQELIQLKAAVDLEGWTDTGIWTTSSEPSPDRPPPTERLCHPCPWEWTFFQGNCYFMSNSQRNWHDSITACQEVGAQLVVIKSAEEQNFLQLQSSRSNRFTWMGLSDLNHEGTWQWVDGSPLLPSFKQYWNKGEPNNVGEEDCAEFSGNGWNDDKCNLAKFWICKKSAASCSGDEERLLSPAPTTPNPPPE
Description: as §1, §2

L-SIGN = molecular target: T3, L-SIGN (Homo sapiens, UniProt Q9H2X3); assay: FACS binding to L-SIGN expressing K562 cells
T3 construct: expressed in transfected cells; host or cells: K562 (retroviral transduction)
T3 sequence (Q9H2X3 1-399): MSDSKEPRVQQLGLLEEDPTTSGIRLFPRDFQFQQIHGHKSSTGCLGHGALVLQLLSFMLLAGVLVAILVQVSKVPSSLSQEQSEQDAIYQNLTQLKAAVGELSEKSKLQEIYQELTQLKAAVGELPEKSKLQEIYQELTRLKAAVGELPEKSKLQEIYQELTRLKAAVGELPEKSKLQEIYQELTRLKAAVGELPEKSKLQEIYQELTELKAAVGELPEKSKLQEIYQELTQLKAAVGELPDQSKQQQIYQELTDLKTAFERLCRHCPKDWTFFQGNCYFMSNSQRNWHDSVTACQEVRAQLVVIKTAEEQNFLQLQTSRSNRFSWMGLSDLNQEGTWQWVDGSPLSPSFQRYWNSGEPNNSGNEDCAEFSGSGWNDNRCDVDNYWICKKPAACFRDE
Description: as §1
For this purpose, human DC-SIGN expressing or cynomolgus monkey DC-SIGN expressing stable CHO cell lines or K562 expressing DC-SIGN or K562 expressing L-SIGN cell lines were checked for density and viability using VICELL (Beckman Coulter), and washed once with 4° C. PBS. Cells were stained with DAPI (0.5 ug/mL) diluted in PBS for 30 min on ice. Cells were diluted into 4° C. FACS buffer (PBS, 10 mM EDTA, 2% FBS). 125 μl of cells were seeded (10,000 cells/well) into 96-well v-bottom plates (Nunc cat #442587) and centrifuged for 4 min at 1500 rpm at 4° C. Supernatant was removed. […] After the final wash, cells were resuspended in Fixative Buffer (Biolegend, 420801) and 90 μl of FACS buffer followed by readout on the flow cytometry machine (BD LSRFortessa Cell Analyzer; Cat #647177). Geometric Mean fluorescence intensity (MFI) of live, single cells was calculated in Flowjo 10.4.2 and exported into Graphpad Prism7 for EC50 determination.
Selectivity was assessed by measuring apparent binding affinities to isogenic cell pairs engineered to overexpress DC-SIGN as well as cell lines expressing DC-SIGN paralog L-SIGN.

[4] = Aggregation by analytical size-exclusion chromatography (AnSEC); format: physicochemical; conditions: conjugate with linker-payload C-5
Description: Conjugates were profiled using analytical size-exclusion chromatography (AnSEC) on Zenix C-300 3 um 7.8×150 mm column (Sepax Technologies). Alternatively, samples were tested on a KW-803 column (TIC Cat #6960940) Aggregation was analyzed based on analytical size exclusion chromatography and reported as the % monomer based on AUC of the assigned monomer peak.
The sample shown below in Table 20 achieved >90% conjugation efficiency and >95% purity as assessed by AnSEC. This illustrates that conjugates of the invention can be made efficiently and have favorable characteristics.

B1: 1G12 Parental (antibody, V domains shown)
VH: QVQLQQSGPGLVQPSQSLSITCTVSGFSLTNYGVHWVRQSPGKGLEWLGVIWRGESTDYNAAFMSRLSVTKDDSKSQVFFKMNSLQADDTAIYYCARNGGSSGWYFDVWGTGTTVTVSS
VL: DIQMTQTHKFMSTSVGDRVSITCKASQDVTSAVAWYQQTPGQSPNLLIYWTSTRHTGVPDRFTGSGSGTDYTLTISSVQAEDLALYYCQQHYTTPLTFGAGTKLELK
- EC50 [1]: 0.02 µg/mL
- EC50 [2]: 0.06 µg/mL
- EC50 [3]: 0.07 µg/mL

B2: 2B2 Hz: Humanization of Antibodies 2B2 and 1G12: variable region constructs were designed for humanization and optimization of sequences (antibody)
heavy: QVQLVQSGAEVKKPGASVKVSCKASGYTFTNYGINWVRQAPGQRLEWMGYIYIGNDYTEYNERFKGRVTITSDTSASTAYMELSSLRSEDTAVYYCARLYYGSSLYSYAMDYWGQGTTVTVSSASTKGPSVFPLAPSSKSTSGGTAALGCLVKDYFPCPVTVSWNSGALTSGVHTFPAVLQSSGLYSLSSVVTVPSSSLGTQTYICNVNHKPSNTKVDKRVEPKSCDKTHTCPPCPAPELLGGPSVFLFPPKPKDTLMISRTPEVTCVVVAVSHEDPEVKFNWYVDGVEVHNAKTKPREEQYNSTYRVVSVLTVLHQDWLNGKEYKCKVSNKALAAPIEKTISKAKGQPREPQVYTLPPSREEMTKNQVSLTCLVKGFYPCDIAVEWESNGQPENNYKTTPPVLDSDGSFFLYSKLTVDKSRWQQGNVFSCSVMHEALHNHYTQKSLSLSPGK
light: DIVMTQSPLSLPVTPGEPASISCRSSKSLLHSSGNTYLYWFLQKPGQSPQLLISRMSNLASGVPDRFSGSGSGTDFTLKISRVEAEDVGVYYCMQHLEYPYTFGGGTKVEIKRTVAAPSVFIFPPSDEQLKSGTASVVCLLNNFYPREAKVQWKVDNALQSGNSQESVTEQDSKDSTYSLSSTLTLSKADYEKHKVYACEVTHQGLSSPVTKSFNRGEC
- human L-SIGN K562 EC50 (L-SIGN): >10 µg/mL

B3: 2B2 Chimeric (antibody)
heavy: EVQLQQSGAELVRPGSSVKMSCKTSGYTFTNYGINWVKQRPGQGLEWIGYIYIGNDYTEYNERFKGKATLTSDTSSSTAHIQLNSLTSEDSAIYFCARLYYGSSLYSYAMDYWGQGTSVTVSSASTKGPSVFPLAPSSKSTSGGTAALGCLVKDYFPCPVTVSWNSGALTSGVHTFPAVLQSSGLYSLSSVVTVPSSSLGTQTYICNVNHKPSNTKVDKRVEPKSCDKTHTCPPCPAPELLGGPSVFLFPPKPKDTLMISRTPEVTCVVVAVSHEDPEVKFNWYVDGVEVHNAKTKPREEQYNSTYRVVSVLTVLHQDWLNGKEYKCKVSNKALAAPIEKTISKAKGQPREPQVYTLPPSREEMTKNQVSLTCLVKGFYPCDIAVEWESNGQPENNYKTTPPVLDSDGSFFLYSKLTVDKSRWQQGNVFSCSVMHEALHNHYTQKSLSLSPGK
light: DIVMTQAAPSVSVTPGESVSISCRSSKSLLHSSGNTYLYWFLQRPGQSPQLLISRMSNLASGVPDRFSGSGSGTAFTLRISRVEAEDVGVYYCMQHLEYPYTFGGGTKLELKRTVAAPSVFIFPPSDEQLKSGTASVVCLLNNFYPREAKVQWKVDNALQSGNSQESVTEQDSKDSTYSLSSTLTLSKADYEKHKVYACEVTHQGLSSPVTKSFNRGEC
- % Monomer ([4]; after preparative SEC): 99%
- % Monomer ([4]; before preparative SEC): 95.4%
